A short description of data set [1]: Pharmacokinetics of cabazitaxel-RGD nanoparticles in rats. Type of data set: in vivo. The note with it: rat, 1 mg/kg IV bolus, plasma. The protocol: Nanoparticles are typically formulated in 10% sucrose and free drug formulations varied, but are typically dosed in 10% SOLUTOL®/10% sucrose, or physiological saline.
(§1) For PK studies, a 0.1 mg/mL solution was dosed at 10 mL/kg such that a 1 mg/kg IV bolus dose was introduced by tail vein injection into rats Following compound administration, blood was collected at 0.083 h, 0.25 h, 0.5 h, 1 h, 2 h, 4 h, 8 h, and 24 h post dose into lithium heparin coated vacuum tubes. Tubes were inverted for 5 minutes and then placed on wet ice until centrifuged for 5 minutes at 4° C. at 6000 rpm. Plasma was harvested, frozen at −80° C. and shipped to for bioanalysis on dry ice.
50 uL of rat plasma were precipitated with 300 uL of DMF and the resulting supernatant was measured for compound content by LC-MS/MS electrospray ionization in the positive mode.

Data set [2] can be described thus: Tolerability in rat PK study of cabazitaxel-RGD nanoparticles. The class given is in vivo. The note with it: rats, 1 mg/kg dose IV. The protocol:
as §1

A short description of data set [3]: Rat pharmacokinetics of nanoparticle formulations of 1 and 2. The class given is in vivo. The note with it: rats, 1 mg/kg IV bolus, plasma, dose normalized. As to the method:
Nanoparticles are typically formulated for in vivo delivery in 10% sucrose and free drug formulations varied, but are typically dosed in 10% Solutol®/10% sucrose, or physiological saline. In this example conjugate 1 without nanoparticle formulation was dosed as a solution in 20% propyleneglycol/80% aqueous sucrose (10%).
For rat pharmacokinetic studies using nanoparticles as described herein, a 0.1 mg/mL solution was dosed at 10 mL/kg such that a 1 mg/kg IV bolus dose was introduced by tail vein injection into rats. Following compound administration, blood was collected at 0.083 hours, 0.25 hours, 0.5 hours, 1 hour, 2 hours, 4 hours, 8 hours, and 24 hours post dose into lithium heparin coated vacuum tubes. Tubes were inverted for 5 minutes and then placed on wet ice until centrifuged for 5 minutes at 4° C. at 6000 rpm. Plasma was harvested, frozen at −80° C. and shipped to for bioanalysis on dry ice.
50 uL of rat plasma was precipitated with 300 uL of DMF and the resulting supernatant was measured for compound content by LC-MS/MS electrospray ionization in the positive mode.
Representative dose normalized rat pharmacokinetic curves for conjugate 1 and nanoparticle formulations of conjugate 1 are shown in FIG. 3.
Representative dose normalized rat pharmacokinetic curves for conjugate 2 and nanoparticle formulations of conjugate 2 are shown in FIG. 4.

The test system of data set [4] is NCI-H524 (ATCC) human lung cancer cells. The class given is cell-based. To be noted: for IC50: treated 2 hours, further incubated 70 hours. The protocol:
Conjugates were assessed in an in vitro assay evaluating inhibition of cell proliferation. NCI-H524 (ATCC) human lung cancer cells were plated in 96 well, V-bottomed plates (Costar) at a concentration of 5,000 cells/well and 24 hours later were treated with compound for 2 hours and further incubated 70 hours. Compound starting dose was 20 μM and three fold serial dilutions were done for a total of ten points. After 2 hours of treatment, cells were spun down, the drug containing media was removed, and fresh complete medium was added and used to resuspend the cells, which were spun again. After removal of the wash media, the cells were resuspended in complete medium, then transferred into white walled, flat bottomed 96 well plates. […] Proliferation was measured using CellTiter Glo reagent using the standard protocol (Promega) and a Glomax multi+detection system (Promega). Percent proliferation inhibition was calculated using the following formula: % inhibition=(control−treatment)/control*100. Control is defined as vehicle alone. IC50 curves were generated using the nonlinear regression analysis (four parameter) with GraphPad Prism 6.

The nature of data set [5]: Rat pharmacokinetics of nanoparticle formulations of 1′. Type of data set: in vivo. The note with it: rats, 1 mg/kg IV bolus, plasma, dose normalized, Table 3. As to the method:
Nanoparticles described herein were typically formulated in 10% sucrose and free drug formulations were generally formulated typically dosed in 10% Solutol®/l 0% sucrose, or physiological saline.
For pharmacokinetic studies, a 0.1 mg/mL solution was dosed at 10 mL/kg such that a 1 mg/kg IV bolus dose was introduced by tail vein injection into rats. Following compound administration, blood was collected at 0.083 hours, 0.25 hours, 0.5 hours, 1 hour, 2 hours, 4 hours, 8 hours, and 24 hours post-dose into lithium heparin coated vacuum tubes. Tubes were inverted for 5 minutes and then placed on wet ice until centrifuged for 5 minutes at 4° C. at 6000 rpm. Plasma was harvested, frozen at −80° C. and shipped to for bioanalysis on dry ice.
50 uL aliquots of rat plasma were precipitated with 300 uL of DMF and the resulting supernatant was measured for compound content by LC-MS/MS electrospray ionization in the positive mode.

Data set [6] in a line: Solubility in aqueous media containing Tween 80. Type of data set: physicochemical. The note with it: aqueous Tween 80. The text has this:
In certain formulations, conjugate 1′ was used without any changes to its native lipophilicity (free conjugate). […] The tendency of conjugate 1 to retain in the nanoparticle despite a high aqueous solubility in Tween/water could be due to the high lipophilicity of cabazitaxel and its compatibility/miscibility with the polymeric matrix. The presence of leucine, proline, tryptophan and tyrosine in the LHRH peptide may also assist in the interaction of the conjugate with the polymeric matrix.
In certain formulations, conjugate 1 was used without any changes to its native lipophilicity (free conjugate). […] Without committing to any particular theory, the tendency of conjugate 1 to retain in the nanoparticle despite a high aqueous solubility in Tween®/water could be due to the high lipophilicity of cabazitaxel and its compatibility/miscibility with the polymeric matrix. The presence of two phenylalanine amino acids in the octreotide peptide may also assist in the interaction of the conjugate with the polymeric matrix.
In some formulations, conjugate 2 was used without any changes to its native lipophilicity (free conjugate). […] The tendency of 2 to be retained in the nanoparticle was reduced compared to 1.

Where a SMILES comes first, the peptide text is derived from it. Bridges are numbered along the chain shown (N, C = ends). [ ]: non-standard residue; d: D form. The star is where a group is joined. X1 = COc1cc2cc(c1Cl)N(C)C(=O)[C@H](OC(=O)[C@H](C)N(C)C(=O)CCS*)[C@]1(C)O[C@H]1[C@H](C)[C@@H]1C[C@@](O)(NC(=O)O1)[C@H](OC)/C=C/C=C(\C)C2; Thr(ol) = C[C@@H](O)[C@H](N)CO

With `CCCCN(CCSSC[C@@H]1NC(=O)[C@@H](Cc2ccccc2)NC(=O)[C@H](CC(=O)O)NC(=O)CNC(=O)[C@H](CCCNC(=N)N)NC1=O)C(=O)O[C@@H](C(=O)OC1C[C@@]2(O)[C@@H](OC(=O)c3ccccc3)[C@@H]3[C@]4(OC(C)=O)CO[C@@H]4C[C@H](OC)[C@@]3(C)C(=O)[C@H](OC)C(=C1C)C2(C)C)[C@@H](NC(=O)OC(C)(C)C)c1ccccc1` (stereo partly drawn) [BT-568], in data set [1], the AUC came to 5.3 µM·h. Also, the “tolerability observations post dose” value in data set [2] was “lethargy and labored breathing were observed immediately post dose in all three rats”. Moreover, the mortality result in data set [2] (three rats) is “one of the three animals died”. In turn, `COc1cccc2c1C(=O)c1c(O)c3c(c(O)c1C2=O)C[C@@](O)(C(=O)COC(=O)CCCC(=O)N[C@H](Cc1ccccc1)C(=O)N[C@H]1CSSC[C@@H](C(=O)N[C@H](CO)[C@@H](C)O)NC(=O)[C@H]([C@@H](C)O)NC(=O)[C@H](CCCCN)NC(=O)[C@@H](Cc2c[nH]c4ccccc24)NC(=O)[C@H](Cc2ccccc2)NC1=O)C[C@@H]3O[C@H]1C[C@H](N)[C@H](O)[C@H](C)O1` [Example 2] displayed an AUC(0-inf) in data set [3] (conjugate 2 and its nanoparticles, Table 12) of 14.3 µM·h. In the case of `CC[C@H](C)[C@@H]([C@@H](CC(=O)N1CCC[C@H]1[C@H](OC)[C@@H](C)C(=O)N[C@H](C)[C@@H](O)c1ccccc1)OC)N(C)C(=O)[C@@H](NC(=O)[C@H](C(C)C)N(C)C(=O)OCc1ccc(NC(=O)[C@H](CCCNC(N)=O)NC(=O)[C@@H](NC(=O)CCCCCN2C(=O)CC(SCCC(=O)N[C@H](Cc3ccccc3)C(=O)N[C@H]3CSSC[C@@H](C(=O)N[C@H](CO)[C@@H](C)O)NC(=O)[C@H]([C@@H](C)O)NC(=O)[C@H](CCCCN)NC(=O)[C@@H](Cc4c[nH]c5ccccc45)NC(=O)[C@H](Cc4ccccc4)NC3=O)C2=O)C(C)C)cc1)C(C)C` (stereo partly drawn) [Conjugate 5], in data set [4], the IC50 came to 433 nM. As for `CO[C@H]1C(=O)[C@]2(C)[C@@H](OC)C[C@H]3OC[C@@]3(OC(C)=O)[C@H]2[C@H](OC(=O)c2ccccc2)[C@]2(O)C[C@H](OC(=O)[C@H](OC(=O)OCCSSCCC(=O)N[C@H](Cc3ccccc3)C(=O)N[C@H]3CSSC[C@@H](C(=O)N[C@H](CO)[C@@H](C)O)NC(=O)[C@H]([C@@H](C)O)NC(=O)[C@H](CCCCN)NC(=O)[C@@H](Cc4c[nH]c5ccccc45)NC(=O)[C@H](Cc4ccccc4)NC3=O)[C@@H](NC(=O)OC(C)(C)C)c3ccccc3)C(C)=C1C2(C)C` [Conjugate 1], the AUC(0-inf) worked out at 2.19 µM·h in data set [5]; 18.3 µM·h in data set [3] (conjugate 1 and its nanoparticles, Table 11). In data set [6], this molecule returned a solubility greater than 7000 µg/mL. For the same molecule, in data set [6], the “solubility in aqueous media containing surfactant” value is “high solubility”. Besides, in data set [4], the IC50 was 110 nM. Molecule `COc1cc2cc(c1Cl)N(C)C(=O)C[C@H](OC(=O)[C@H](C)N(C)C(=O)CCSSCCC(=O)N[C@H](Cc1ccccc1)C(=O)N[C@H]1CSSC[C@@H](C(=O)N[C@H](CO)[C@@H](C)O)NC(=O)[C@H]([C@@H](C)O)NC(=O)[C@H](CCCCN)NC(=O)[C@@H](Cc3c[nH]c4ccccc34)NC(=O)[C@H](Cc3ccccc3)NC1=O)[C@]1(C)O[C@H]1[C@H](C)[C@@H]1C[C@@](O)(NC(=O)O1)[C@H](OC)/C=C/C=C(\C)C2` [Conjugate 4] registered a half-maximal inhibitory concentration (IC50) in data set [4] of 229 nM. This lies in the sub-micromolar range. For `C[C@@H](O)[C@@H]1NC(=O)[C@H](CCCCN)NC(=O)[C@@H](Cc2c[nH]c3ccccc23)NC(=O)[C@H](Cc2ccccc2)NC(=O)[C@@H](NC(=O)[C@H](N)Cc2ccccc2)CSSC[C@@H](C(=O)N[C@H](CO)[C@@H](C)O)NC1=O` [Octreotide, reference compound], the “effect on cell proliferation” value in data set [4] (octreotide alone) is “no significant effect”. `COc1cc2cc(c1Cl)N(C)C(=O)[C@H](OC(=O)[C@H](C)N(C)C(=O)CCSSC[C@H](N)C(=O)N[C@@H](CCCCN)C(=O)N[C@@H](CCCCN)C(=O)N[C@@H](CCCCN)C(=O)N[C@@H](CCCCN)C(=O)N[C@H](Cc1ccccc1)C(=O)N[C@H]1CSSC[C@@H](C(=O)N[C@H](CO)[C@@H](C)O)NC(=O)[C@H]([C@@H](C)O)NC(=O)[C@H](CCCCN)NC(=O)[C@@H](Cc3c[nH]c4ccccc34)NC(=O)[C@H](Cc3ccccc3)NC1=O)[C@]1(C)O[C@H]1[C@H](C)[C@@H]1C[C@@](O)(NC(=O)O1)[C@H](OC)/C=C/C=C(\C)C2` [Conjugate 7] (H-C(X1)KKKK[dF]CF[dW]KTC[Thr(ol)]; disulfide 7-12): in data set [4], the IC50 worked out at 955 nM. Turning to `CCCCN(CCSSCCC(=O)N[C@H](Cc1ccccc1)C(=O)N[C@H]1CSSC[C@@H](C(=O)N[C@H](CO)[C@@H](C)O)NC(=O)[C@H]([C@@H](C)O)NC(=O)[C@H](CCCCN)NC(=O)[C@@H](Cc2c[nH]c3ccccc23)NC(=O)[C@H](Cc2ccccc2)NC1=O)C(=O)O[C@@H](C(=O)O[C@H]1C[C@@]2(O)[C@@H](OC(=O)c3ccccc3)[C@@H]3[C@]4(OC(C)=O)CO[C@@H]4C[C@H](OC)[C@@]3(C)C(=O)[C@H](OC)C(=C1C)C2(C)C)[C@@H](NC(=O)OC(C)(C)C)c1ccccc1` [Conjugate 3], the IC50 in data set [4] was greater than 20000 nM. Take `COc1cc2cc(c1Cl)N(C)C(=O)C[C@H](OC(=O)[C@H](C)N(C)C(=O)CCSSCCC(=O)NCCOCCOCCOCCOCCOCCOCCOCCOCCC(=O)N[C@H](Cc1ccccc1)C(=O)N[C@H]1CSSC[C@@H](C(=O)N[C@H](CO)[C@@H](C)O)NC(=O)[C@H]([C@@H](C)O)NC(=O)[C@H](CCCCN)NC(=O)[C@@H](Cc3c[nH]c4ccccc34)NC(=O)[C@H](Cc3ccccc3)NC1=O)[C@]1(C)O[C@H]1[C@H](C)[C@@H]1C[C@@](O)(NC(=O)O1)[C@H](OC)/C=C/C=C(\C)C2` [Conjugate 6]: the midpoint of inhibition in data set [4], the IC50, lay at 234 nM.

The values are drawn from US20170151339A1 (priority 2014, published 2017).
